How the values were obtained:
[1] = molecular target: the molecule itself; assay: cell-based or functional assay
[2] = molecular target: the molecule itself; assay: SEC; Superose 12 column, 50 mM Hepes pH 7.4, 150 mM sodium chloride, 0.4 mL/min, calibrated with molecular weight markers

B1: Nucleoside diphosphate kinase of Mycobacterium tuberculosis, wild type (enzyme)
chain: MTERTLVLIKPDGIERQLIGEIISRIERKGLTIAALQLRTVSAELASQHYAEHEGKPFFGSLLEFITSGPVVAAIVEGTRAIAAVRQLAGGTDPVQAAAPGTIRGDFALETQFNLVHGSDSAESAQREIALWFPGA
notes: Nucleoside diphosphate kinase, Mycobacterium tuberculosis; No tag is mentioned; also called Mt-NDPK; wt Mt-NDPK
Q: Which results are given for B1?
A: c1/2 of inactivation/unfolding in urea (10 µg/mL, 16 h) [1]: ~5.2 M; stoichiometry N [2]: 6

— PMC3589492, “Intersubunit Ionic Interactions Stabilize the Nucleoside Diphosphate Kinase of Mycobacterium tuberculosis” (PLoS ONE, 2013)
